Columns and labels:
[1] = biological target: T1, MS2 coat protein V75E,A81G (MS2 bacteriophage, UniProt P03612 2-130, V76E;A82G); assay: fluorescence polarization; 25 C; apparent Kd, ligand 5 nM >= Kd so true Kd may be lower; FP with 5 nM ligand at 25 C (some FPCD at 4 C); buffer for MS2-CP (BB6): 100 mM Tris pH 7.5, 10 mM MgCl2, 80 mM KCl, 0.1 mg/mL BSA; other buffers not in material; details: protein: recombinant; tags: HisMBP fusion with 3C protease site; chain copies: 2; label: fluorophore; hairpin
[2] = biological target: hnRNP-U RNA-binding domain (human, UniProt Q00839 673-825); assay: fluorescence polarization; 25 C; apparent Kd; FP with 5 nM ligand at 25 C (some FPCD at 4 C); buffer for MS2-CP (BB6): 100 mM Tris pH 7.5, 10 mM MgCl2, 80 mM KCl, 0.1 mg/mL BSA; other buffers not in material; details: protein: recombinant; tags: N-terminal His-MBP fusion; label: fluorophore, 3' by name; G-quadruplex
Sequence of hnRNP-U RNA-binding domain (Q00839 673-825): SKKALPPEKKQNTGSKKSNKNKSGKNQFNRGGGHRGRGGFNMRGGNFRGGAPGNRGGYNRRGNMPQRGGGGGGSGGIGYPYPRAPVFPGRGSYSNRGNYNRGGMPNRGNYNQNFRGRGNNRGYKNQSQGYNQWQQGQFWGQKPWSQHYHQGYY

[3] = biological target: T1, MS2 coat protein V75E,A81G; assay: competition; displaces [F]RNA2MS2; FP with 5 nM ligand at 25 C (some FPCD at 4 C); buffer for MS2-CP (BB6): 100 mM Tris pH 7.5, 10 mM MgCl2, 80 mM KCl, 0.1 mg/mL BSA; other buffers not in material; details: protein: recombinant; tags: HisMBP fusion with 3C protease site; chain copies: 2; hairpin
TREX1 catalytic core = biological target: T2, TREX1 catalytic core (murine, UniProt Q91XB0 1-242); assay: fluorescence polarization; 25 C; apparent Kd; FP with 5 nM ligand at 25 C (some FPCD at 4 C); buffer for MS2-CP (BB6): 100 mM Tris pH 7.5, 10 mM MgCl2, 80 mM KCl, 0.1 mg/mL BSA; other buffers not in material; details: protein: recombinant; tags: MBP fusion, cleaved by protease; chain copies: 2; label: 5' fluorophore (FP)
T2 sequence: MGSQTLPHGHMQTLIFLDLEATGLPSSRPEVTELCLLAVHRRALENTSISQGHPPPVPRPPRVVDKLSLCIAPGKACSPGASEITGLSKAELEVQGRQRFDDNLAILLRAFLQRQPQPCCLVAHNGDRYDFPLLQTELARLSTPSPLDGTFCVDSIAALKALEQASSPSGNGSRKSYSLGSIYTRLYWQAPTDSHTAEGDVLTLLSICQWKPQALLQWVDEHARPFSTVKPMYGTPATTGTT

TREX1 R174A,K175A = biological target: T3, TREX1 R174A,K175A (murine, UniProt Q91XB0 1-242, R174A;K175A); assay: as above; details: protein: recombinant; tags: MBP fusion, cleaved by protease (similar to WT); chain copies: 2; label: 5' fluorophore (FP)
T3 sequence: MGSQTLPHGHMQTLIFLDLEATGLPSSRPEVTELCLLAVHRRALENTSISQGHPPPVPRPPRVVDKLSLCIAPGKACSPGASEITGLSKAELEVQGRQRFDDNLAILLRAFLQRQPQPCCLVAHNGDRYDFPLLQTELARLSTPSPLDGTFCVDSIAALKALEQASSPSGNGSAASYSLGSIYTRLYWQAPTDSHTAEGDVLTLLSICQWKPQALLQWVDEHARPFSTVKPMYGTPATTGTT

FBF-2 RNA-binding domain = biological target: T4, FBF-2 RNA-binding domain (Caenorhabditis elegans, UniProt Q09312 164-575); assay: as above; details: protein: recombinant; label: 5' 6-FAM
T4 sequence: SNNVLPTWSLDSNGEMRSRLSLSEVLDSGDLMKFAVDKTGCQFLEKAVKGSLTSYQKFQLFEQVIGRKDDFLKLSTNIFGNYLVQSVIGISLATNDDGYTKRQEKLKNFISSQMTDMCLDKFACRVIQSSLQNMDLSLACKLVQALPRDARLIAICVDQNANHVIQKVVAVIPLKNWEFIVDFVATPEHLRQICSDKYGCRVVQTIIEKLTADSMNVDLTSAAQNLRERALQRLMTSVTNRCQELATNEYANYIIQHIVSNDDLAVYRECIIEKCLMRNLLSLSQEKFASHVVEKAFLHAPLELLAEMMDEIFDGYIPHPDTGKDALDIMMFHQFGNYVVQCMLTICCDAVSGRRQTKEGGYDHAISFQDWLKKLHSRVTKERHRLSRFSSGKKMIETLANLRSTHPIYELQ

GGACAUGAGGAUCACCCAUGU (structured_RNA) [[F]RNA2MS2]
Kd [1]: 2.9 ± 0.62 nM

GGGAAGGGAAGGGAAGGGAA (structured_RNA) [r(G3A2)4[F]]
Kd [2]: 15 ± 4.8 nM

GGGACUGAGGAUCACCCAGUCUAU (structured_RNA) [RNA1MS2]
binding result [3]: binds

GACTG (ssDNA) [[F]d(N)5]
Kd (TREX1 catalytic core): 8.9 ± 3.8 nM
Kd (TREX1 R174A,K175A): 46 ± 16 nM

AACAUGUGCCAUA (ssRNA) [[F]RNAPUF]
Kd (FBF-2 RNA-binding domain): 50 ± 9.2 nM

— PMC10293810, “Multiple RNA- and DNA-binding proteins exhibit direct transfer of polynucleotides with implications for target-site search”
